Experiments:
PANC-1 = assay: relative CAT expression in PANC-1 cells; type: cell-based, human; conditions: PANC-1 (high PDX-1); compared to RIP and HIP 1400
Description: FIG. 4 is a plot of the assay of the relative CAT expression being driven by BL-1 promoter compared to RIP and HIP 1400 promoter constructs in human pancreas cancer cell line, PANC-1, which have high expression of PDX-1, and benign human pancreatic ductal epithelial cell line HPDE, which have no expression of PDX-1 and are a negative control cell line.
(§1) In our methodological approach, activity and specificity of BLs were determined by CAT and mCherry assays in PDX-1+PC and HEK293 cell lines vs PDX-1—human pancreatic ductal epithelial (HPDE) cells. […] Cytotoxicity was determined by MTS assay. 1M PANC-1 cells were injected ip into 65 SCID mice; two weeks later, mice received BL1-vTK, RIP-vTK, CMV-vTK, or pVAX1 empty vector control (35 ug liposomal DNA/mouse/tail vein followed by two weeks of GCV (40 mg/kg, ip, bid; N=15/group). Glucose levels were measured on days 14 and 60 after treatment. Tumor volume was measured in each mouse. Statistical analysis was performed via paired T test; p<0.05=significant.

HPDE cells = assay: CAT expression in HPDE cells (PDX-1 negative, PDX-1 co-transfection dose curve); type: cell-based, human
Description: FIG. 7 is a plot of the assay of the BL-CAT driving CAT expression in response to increasing doses of PDX-1 in human pancreatic ductal epithelial cells, which have very low expression of PDX-1.
FIG. 8 is a plot of another assay of the BL-CAT driving CAT expression in response to increasing doses of PDX-1 in human pancreatic ductal epithelial cells, which have very low expression of PDX-1.
as §1

MIA PaCa2 = assay: relative CAT expression in MIA PaCa2 vs MIA PaCa2 PDX-1 cells; type: cell-based, human; conditions: MIA PaCa2 (very low PDX-1) vs MIA PaCa2 stably transfected with PDX-1; compared to RIP and three HIP fragments
Source text: FIG. 5 is a plot of the assay of the relative CAT expression being driven by BL-1 promoter compared to RIP and three HIP fragments in human pancreas cancer cell line, MIA PaCa2, which have very low PDX-1 expression vs MIA PaCa2 cells stably transfected with PDX-1.

[1] = system: human embryonic kidney cell line 293 stably transfected with PDX-1 or mutated PDX-1 P47D; assay: relative CAT expression in 293 PDX-1 vs 293 P47D cells; type: cell-based; conditions: 293 stably transfected with PDX-1 or PDX-1 P47D; compared to RIP and three HIP fragments
Source text: FIG. 6 is a plot of the assay of the relative CAT expression being driven by BL-1 promoter compared to RIP and three HIP fragments in human embryonic kidney cell line 293, (which have no PDX-1 expression), stably transfected with PDX-1 or mutated PDX-1 P47D.

Beta TC-6 cells = assay: CAT assay for promoter activity in Beta TC-6 cells; type: cell-based, mouse; conditions: compared to human insulin promoter fragments
Description: FIG. 2 is a plot of the CAT assay for HIP activity in Beta TC-6 cells.
FIG. 3 is a plot of the CAT assay for HIP promoter construct expression activity BL promoter construct expression activity in Beta TC-6 cells.
as §1

[2] = system: PDX-1 stably expressing PC and HEK cells; assay: CAT and mCherry reporter assays in PDX-1+ PC and HEK293 cell lines; type: cell-based, human
Description: as §1

B1: BL-1: synthetic 550 bp promoter, SEQ ID NO: 1; three repeated C2/E2/G2/A3/CRE1 and three repeated GG2/A2/C1/E1/A1 motifs (nucleic acid)
DNA: GACAGCAGCGCAAAGAGCCCCGCCCTGCAGCCTCCAGCTCTCCTGGTCTAATGTGGAAAGTGGCCCAGGTGAGGGCTTTGCTCTCCTGGAGACATTTGCCCCCAGCTGTGAGCAGGGACAGGTCTGGCCACCGGGCCCCTGGTTAAGACTCTAATGACCCGCTGGTCCCAGGGACAGGTCTGGCCACCGGGCCCCTGGTTAAGACTCTAATGACCCGCTGGTCCCAGGGACAGGTCTGGCCACCGGGCCCCTGGTTAAGACTCTAATGACCCGCTGGTCCGGAAATGGTCCGGAAATTGCAGCCTCAGCCCCCAGCCATCTGCCGACCCCCCCACCCCAGGCCCTAATGGGCGGAAATGGTCCGGAAATTGCAGCCTCAGCCCCCAGCCATCTGCCGACCCCCCCACCCCAGGCCCTAATGGGCGGAAATGGTCCGGAAATTGCAGCCTCAGCCCCCAGCCATCTGCCGACCCCCCCACCCCAGGCCCTAATGGGCGGTAGGGGAGATGGGCTCTGAGACTATAAAGCCAGCGGGGGCCCAGCAGCCCTC
PANC-1
  relative CAT expression: to a far greater degree than HIP and RIP
HPDE cells; HPDE cells, co-transfection of PDX-1
  CAT expression in response to increasing doses of PDX-1: dose dependent manner
HPDE cells; PDX-1-negative cell lines
  CAT expression: No CAT expression was detected
MIA PaCa2
  relative CAT expression: more effective than RIP or HIP
[1]
  relative CAT expression: far more effective than RIP or HIP
Beta TC-6 cells
  expression of CAT: equal to or better than human insulin promoter fragments
[2]; among the BL promoters, CAT and mCherry assays
  activity of expressing reporter genes: highest activity
[2]; vs CMV-driven expression
  CAT and mCherry reporter expression: equal to CMV-driven expression
[2]; vs RIP-driven expression, p<0.05
  CAT and mCherry reporter expression: significantly greater than RIP-driven expression
